Measured values as given in patent publication US5624659, “Method of treating brain tumors expressing tenascin” (Duke University, dated 1997).

Target: tenascin on the tenascin-expressing human glioma cell line U-251 MG-C3 (glutaraldehyde-fixed) (human, UniProt P24821)
Experiment: modified Scatchard analysis, 125I-labelled antibody on glutaraldehyde-fixed U-251 MG-C3 cells
Experimental: A modified Scatchard analysis was used to measure the binding affinity of labeled ch81C6. Serially diluted 125I-labeled antibody (200 μl, 1:2 dilution starting from 1600 ng/ml) was incubated in 48-well plates overnight at 37° C. with the antigen-positive human glioma cell line U-251 MG-C3 fixed in glutaraldehyde and the antigen-negative human osteogenic sarcoma cell line 2T. The cells were washed and solubilized with 2N NaOH, and the radioactivity was measured with a gamma counter. The data was analyzed in accordance with known techniques (Y. S. Lee et al., *Cancer Res.* 48, 559 (1988)).
The ch81C6 from high production transfectoma F9C11A5 was purified and further characterized. It was labeled with ^125I using the Iodogen method, and the percentage of immunoreactivity was determined by absorption with D-54 MG xenograft homogenate. The affinity constant was defined by Scatchard analysis using binding assay on a tenascin-expressing cell line U-251 MGC-3 as described above.

B1: chimeric 81C6 (mouse/human chimeric antibody, human IgG2, from transfectoma F9C11A5) (antibody, V domains shown)
VH: EVQLQQSGPELVKPGASVKMSCKASGYTFTSYVVHWVKQNPGQGLEWIGYINPFNDGTKYNENFKGKATLTSDRSSSTAYMELSSLTSEESAVYFCARDMGREGFAYWGQGTLVTVSA
VL: DIVMTQAAFSNPVTLGTSASISCRSSKSLLHSNGITYLYWYLQKPGQSPQLLIYQMSNLASGVPDRFSSSGSGTDFTLRISRVEAEDVGVYYCAQNLELPRTFGGGTKLEIK
A Ka of 1.67e+08 M⁻¹ was found for B1 in this work.
